Reference: article PMC12682122

Biological target: alpha-enolase (baker's yeast) (baker's yeast) (UniProt P00924)
Experiment: cross-linking; 1 mg/ml alpha-enolase in PBS with BVSS-Me, BVSS-Et, BVSS-Ph, Alkyne-BVSC or DSBSO (1 mM, 1 h, 37 °C; DSBSO 30 min RT); SDS-PAGE, Coomassie stain; DMSO as negative control

stoichiometry N: 2
Substance: alpha-enolase (baker's yeast) (from UniProt P00924 1-437) (enzyme)
